What was measured:
Assay in all cases: cell-based or functional assay
[1] = target: SARS-CoV-2 spike protein, Alpha (B.1.1.7) variant, on pseudovirus (SARS-CoV-2 (Alpha variant))
[2] = target: SARS-CoV-2 spike protein, Beta (B.1.351) variant, on pseudovirus (SARS-CoV-2 (Beta variant))
[3] = target: SARS-CoV-2 spike protein, Delta (B.1.617.2) variant, on pseudovirus (SARS-CoV-2 (Delta variant))
[4] = target: SARS-CoV-2 spike protein, Gamma (P.1) variant, on pseudovirus (SARS-CoV-2 (Gamma variant))
[5] = target: SARS-CoV-2 spike protein, Omicron BA.2 variant, on pseudovirus (SARS-CoV-2 (Omicron BA.2 variant))
[6] = target: SARS-CoV-2 spike protein, Omicron BA.4/BA.5 variants, on pseudovirus (SARS-CoV-2 (Omicron BA.4/BA.5 variants))

S309 (antibody)
IC50 (µg/ml), pseudotyped virus neutralization [1]: 0.0347 µg/mL
IC50 (µg/ml), pseudotyped virus neutralization [2]: 0.0043 µg/mL
IC50 (µg/ml), pseudotyped virus neutralization [3]: 0.0336 µg/mL
IC50 (µg/ml), pseudotyped virus neutralization [4]: 0.0083 µg/mL
IC50 (µg/ml), pseudotyped virus neutralization [5]: 0.416 µg/mL
IC50 (µg/ml), pseudotyped virus neutralization [6]: 0.142 µg/mL

S2E12 (antibody)
IC50 (µg/ml), pseudotyped virus neutralization [1]: 0.0004 µg/mL
IC50 (µg/ml), pseudotyped virus neutralization [2]: < 0.0003 µg/mL
IC50 (µg/ml), pseudotyped virus neutralization [3]: < 0.0003 µg/mL
IC50 (µg/ml), pseudotyped virus neutralization [4]: 0.0003 µg/mL
IC50 (µg/ml), pseudotyped virus neutralization [5]: 0.137 µg/mL
IC50 (µg/ml), pseudotyped virus neutralization [6]: > 1 µg/mL

— patent EP4349860A1
